# According to patent US20200392247A1 (MCMASTER UNIVERSITY, published 2020):
# B1: Anti-HER-2 DARPin CAR (CD28-based CAR) (other)
# chain: MSRGSDLGKKLLEAARAGQDDEVRILMANGADVNAKDEYGLTPLYLATAHGHLEIVEVLLKNGADVNAVDAIGFTPLHLAAFIGHLEIAEVLLKHGADVNAQDKFGKTAFDISIGNGNEDLAEILQKLN
# notes: Expressed on the surface of engineered human T cells; also called conventional CAR with the same DARPin; anti-HER-2 DARPin CD28-based CAR; not shown: rest of the CD28-based CAR (hinge, transmembrane and signalling domains)
# B2: Anti-HER-2 DARPin Tri-TAC (full-length Trifunctional T cell-antigen coupler, configuration 1) (other)
# chain: MSRGSDLGKKLLEAARAGQDDEVRILMANGADVNAKDEYGLTPLYLATAHGHLEIVEVLLKNGADVNAVDAIGFTPLHLAAFIGHLEIAEVLLKHGADVNAQDKFGKTAFDISIGNGNEDLAEILQKLNEQKLISEEDLNPGGGGGSGGGGSGGGGSGGGGSGSMDIQMTQTTSSLSASLGDRVTISCRASQDIRNYLNWYQQKPDGTVKLLIYYTSRLHSGVPSKFSGSGSGTDYSLTISNLEQEDIATYFCQQGNTLPWTFAGGTKLEIKGGGGSGGGGSGGGGSGGGGSEVQLQQSGPELVKPGASMKISCKASGYSFTGYTMNWVKQSHGKNLEWMGLINPYKGVSTYNQKFKDKATLTVDKSSSTAYMELLSLTSEDSAVYYCARSGYYGDSDWYFDVWGQGTTLTVFSTSGGGGSLESGQVLLESNIKVLPTWSTPVQPMALIVLGGVAGLLLFIGLGIFFCVRCRHRRRQAERMSQIKRLLSEKKTCQCPHRFQKTCSPI
# notes: also called N-Darpin Tri TAC; full length Tri-TAC
# B3: Tri-TAC variant that lacked the cytosolic domain that interacts with Lck (other)
# chain: MSRGSDLGKKLLEAARAGQDDEVRILMANGADVNAKDEYGLTPLYLATAHGHLEIVEVLLKNGADVNAVDAIGFTPLHLAAFIGHLEIAEVLLKHGADVNAQDKFGKTAFDISIGNGNEDLAEILQKLNEQKLISEEDLNPGGGGGSGGGGSGGGGSGGGGSGSMDIQMTQTTSSLSASLGDRVTISCRASQDIRNYLNWYQQKPDGTVKLLIYYTSRLHSGVPSKFSGSGSGTDYSLTISNLEQEDIATYFCQQGNTLPWTFAGGTKLEIKGGGGSGGGGSGGGGSGGGGSEVQLQQSGPELVKPGASMKISCKASGYSFTGYTMNWVKQSHGKNLEWMGLINPYKGVSTYNQKFKDKATLTVDKSSSTAYMELLSLTSEDSAVYYCARSGYYGDSDWYFDVWGQGTTLTVFSTSGGGGSLESGQVLLESNIKVLPTWSTPVQPMALIVLGGVAGLLLFIGLGIFF
# notes: Expressed in 293TM cells; also called cytosolic deletion; TAC without cytosolic domain
# Columns and labels:
# recombinant HER-2 = target: T1, recombinant HER-2 (UniProt P04626 23-652, limits assumed); assay: flow cytometry of engineered T cells stained with recombinant HER-2
# T1 construct: also called recombinant HER-2 protein; HER-2 (erbB-2)
# Method: The chimeric receptors were detected by incubation with recombinant HER-2. The Anti-HER-2 DARPin Tri-TAC was expressed well on the surface of the engineered T cells. However, its maximal surface expression was lower compared to the Anti-HER-2 DARPin CAR construct. […] T cells were activated with anti-CD3/anti-CD28 Dynabeads and engineered with lentiviruses encoding the Tri-TAC, CAR or no receptor (control). After 2 weeks, the CAR and control cultures had grown to similar numbers while the Tri-TAC cultures grew slightly more slowly.
# β-Actin = β-Actin (UniProt P60709 1-375); assay: immunoprecipitation of the Tri-TAC with recombinant HER-2 beads from 293TM cells, Western blot
# Method: (§1) FIG. 5 illustrates Lck interaction with the Tri-TAC. In FIG. 5A, 293TM cells were engineered to express Lck in combination with either the full-length Tri-TAC or a Tri-TAC variant that lacked the cytosolic domain that interacts with Lck. The Tri-TAC receptors were immunoprecipitated with beads carrying recombinant HER-2 protein. The precipitated Tri-TAC was measured by Western blot with an antibody against the myc tag. Co-precipitated Lck was identified by Western blot with an antibody against Lck. β-Actin was not pulled down and only detected in the supernatant (S). Both full length Tri-TAC and the Tri-TAC that lacked the cytosolic domain were efficiently pulled down and detected in the bound fraction (B). […] Greater amounts of Lck were co-immunopreciptated with the full-length Tri-TAC relative to the controls. […] Signal was corrected relative to the negative control.
# Lck = target: T2, Lck (UniProt P06239 1-509, limits assumed); assay: co-immunoprecipitation with recombinant HER-2 beads from 293TM cells, Western blot for Lck
# T2 construct: also called protein kinase Lck
# Method: as §1
# T2 sequence (P06239 whole entry): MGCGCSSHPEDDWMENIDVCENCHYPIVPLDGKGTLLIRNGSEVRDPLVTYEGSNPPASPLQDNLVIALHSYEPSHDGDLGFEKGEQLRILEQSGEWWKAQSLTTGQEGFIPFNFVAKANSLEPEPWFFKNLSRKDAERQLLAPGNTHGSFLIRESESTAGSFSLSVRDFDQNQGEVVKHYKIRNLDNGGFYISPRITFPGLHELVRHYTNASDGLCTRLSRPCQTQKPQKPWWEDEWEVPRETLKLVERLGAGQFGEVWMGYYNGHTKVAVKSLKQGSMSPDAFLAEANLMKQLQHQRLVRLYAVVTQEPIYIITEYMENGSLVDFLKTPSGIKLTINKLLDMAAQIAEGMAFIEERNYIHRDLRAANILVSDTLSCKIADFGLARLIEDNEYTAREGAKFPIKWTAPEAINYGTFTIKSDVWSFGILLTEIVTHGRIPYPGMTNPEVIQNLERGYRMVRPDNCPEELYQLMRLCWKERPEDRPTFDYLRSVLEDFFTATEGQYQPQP
Binder,binding result (recombinant HER-2),binding result (β-Actin),binding result (Lck)
B1,binds,,
B2,binds,no binding,
B3,,no binding,no binding
